From US20140357851A1

Target: PCSK9 S123R (human) (UniProt Q8NBP7)
Experiment: Luminex bead assay

B1: 21B12 (isotype as tested not stated) (antibody, V domains shown)
VH: QVQLVQSGAEVKKPGASVKVSCKASGYTLTSYGISWVRQAPGQGLEWMGWVSFYNGNTNYAQKLQGRGTMTTDPSTSTAYMELRSLRSDDTAVYYCARGYGMDVWGQGTTVTVSS
VL: QSALTQPASVSGSPGQSITISCTGTSSDVGGYNSVSWYQQHPGKAPKLMIYEVSNRPSGVSNRFSGSKSGNTASLTISGLQAEDEADYYCNSYTSTSMVFGGGTKLTVL
BmaxPerWT (% of wild type): 87.6
RawMaxPerWT (% of wild type): 88.1
